Patent US20050164323A1, “Methods of treating asthma” (Wyeth, priority 2003, published 2005)

Experiments:
[1] = substrate: Nc1ncnc2c1ncn2[C@@H]1O[C@H](COP(=O)(O)OP(=O)(O)OP(=O)(O)O)[C@@H](O)[C@H]1O; assay: purified protein, by the assay type; details: pH 7.5, 25.0 °C
[2] = substrate: CC(C)C[C@H](NC(=O)[C@H](CO)NC(=O)CNC(=O)[C@H](CCCCN)NC(=O)[C@H](CCCNC(=N)N)NC(=O)[C@H](C)NC(=O)[C@@H](N)Cc1ccccc1)C(=O)N[C@@H](CCCNC(=N)N)C(=O)N[C@@H](CCC(N)=O)C(=O)O; assay: coupled PK/LDH assay: steady-state kinetics, product and dead-end inhibition of PKC-θ KD; format: biochemical, human; details: other: varied peptide substrate, saturating ATP, pH 7.5

B1: PKC-θ KD (Homo sapiens) (protein)
chain: MGPELNKERPSLQIKLKIEDFILHKMLGKGSFGKVFLAEFKKTNQFFAIKALKKDVVLMDDDVECTMVEKRVLSLAWEHPFLTHMFCTFQTKENLFFVMEYLNGGDLMYHIQSCHKFDLSRATFYAAEIILGLQFLHSKGIVYRDLKLDNILLDKDGHIKIADFGMCKENMLGDAKTNTFCGTPDYIAPEILLGQKYNHSVDWWSFGVLLYEMLIGQSPFHGQDEEELFHSIRMDNPFYPRWLEKEAKDLLVKLFVREPEKRLGVRGDIRQHPLFREINWEELERKEIDPPFRPKVKSPFDCSNFDKEFLNEKPRLSFADRALINSMDQNMFRNFSFMNPGMERLISHHHHHH
notes: PKC-θ KD (amino acid residues 362 to 706) was cloned into a pET16b expression vector; hexa-histidine (C); Met-Gly (non-native N-terminal residues) (N); made in house; host or cells: E. coli BL21-DE3 (pET16b)
In the case of B1, the Km ([1]; other: 0 mM NaCl) is reported as 25 µM, the Km ([1]; other: initial velocity with peptide 1, 625 mM NaCl) is reported as 321 ± 19 µM and the Km ([1]; other: initial velocity, varied ATP vs peptide 3, 100 mM NaCl) is reported as 118 ± 17 µM. It also gave a kcat/Km [2] of 2.7e+06 M⁻¹ s⁻¹.
